The values below are quoted from earlier work in paper PMC7704677.

For orientation: pKa means the negative logarithm of the acid dissociation constant.

Experiment in all cases: UV-vis
What all share (details): unphotolysed state; further details not given

The subject of data set [1] is Asp89.
Data set [2] relates to Asp75.
In data set [3] the target is Asp85 (UniProt position 98, WARYADWLFTT).
In data set [4] the target is Asp95 (UniProt position 95, FYRYADWLLTV).

Turning to “Acetabularia rhodopsin I (ARI) (Acetabularia acetabulum)”, in data set [1], the pKa is listed as 2.7.

Consider “Anabaena sensory rhodopsin (ASR) (Anabaena (Nostoc) sp.)”, for which the pKa in data set [2] is recorded as 4.0.

Consider “Bacteriorhodopsin (HsBR) (Halobacterium salinarum)”, for which the pKa in data set [3] was 2.7.

Take “Thermophilic rhodopsin (TR) (Thermus thermophilus)”: the pKa in data set [4] is 3.4.
